{
  "source": "paper PMC4802922",
  "molecular_target": "Dnmt3a-CD wt;Dnmt3L (Mus musculus;) (UniProt O88508+Q9CWR8)",
  "sequence (O88508 608-908, chain 1 of 2)": "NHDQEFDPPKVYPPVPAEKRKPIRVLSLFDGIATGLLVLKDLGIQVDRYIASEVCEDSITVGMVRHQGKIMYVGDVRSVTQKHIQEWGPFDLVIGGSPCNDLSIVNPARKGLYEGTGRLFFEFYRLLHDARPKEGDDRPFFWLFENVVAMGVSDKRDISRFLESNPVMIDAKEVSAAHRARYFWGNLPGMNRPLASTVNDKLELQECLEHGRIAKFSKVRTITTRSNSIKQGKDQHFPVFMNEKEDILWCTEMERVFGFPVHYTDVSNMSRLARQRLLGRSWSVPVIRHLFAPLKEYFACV",
  "sequence (Q9CWR8 whole entry, chain 2 of 2)": "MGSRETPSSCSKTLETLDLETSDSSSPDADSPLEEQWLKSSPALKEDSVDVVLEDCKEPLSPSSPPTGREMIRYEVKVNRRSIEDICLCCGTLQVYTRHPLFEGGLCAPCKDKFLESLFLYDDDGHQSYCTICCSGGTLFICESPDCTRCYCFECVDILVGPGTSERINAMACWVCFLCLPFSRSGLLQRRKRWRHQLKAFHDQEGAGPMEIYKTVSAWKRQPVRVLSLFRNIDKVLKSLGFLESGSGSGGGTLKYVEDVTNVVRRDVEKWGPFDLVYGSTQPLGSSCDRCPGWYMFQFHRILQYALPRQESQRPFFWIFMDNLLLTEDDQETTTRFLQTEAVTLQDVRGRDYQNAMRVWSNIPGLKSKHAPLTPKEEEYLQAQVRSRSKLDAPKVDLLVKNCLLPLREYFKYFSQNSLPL",
  "assay": "2-aminopurine fluorescence (base flipping)",
  "conditions": "0.1 mM AdoMet; N15 of strand 1 = 2-aminopurine (replaces target C); C15 of strand 2 = 5-methylcytosine; Fluorescence polarization: 10 nM duplex, 0.1 mM AdoHcy, Dnmt3a reaction buffer (composition not given), 25 °C; enzyme up to 600-800 nM",
  "data": [
    {"sequence": "CTGAATACTACTTGNGCTCTCTAACCTGAT / ATCAGGTTAGAGAGCGCAAGTAGTATTCAG [GBGC/CGMG]", "values": [
      {"measurement": "binding signal", "value": 100, "unit": "%"}
    ]}
  ]
}
